Laboratory results as given in PMC9800282 (2022).

Target: T1, VTN (vitronectin) (Homo sapiens (Human), UniProt P04004)
T1 chain: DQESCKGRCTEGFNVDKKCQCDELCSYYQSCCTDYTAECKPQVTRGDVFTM
Assay: SPR; Mg2+/Ca2+/Mn2+ buffer, 37 °C 1 mM MgCl2, 1 mM CaCl2, 2 mM MnCl2 in SPR buffer

Kd: 997 nM
B1: integrin αvβ3 (rhαvβ3) (protein)
chain 1: FNLDVDSPAEYSGPEGSYFGFAVDFFVPSASSRMFLLVGAPKANTTQPGIVEGGQVLKCDWSSTRRCQPIEFDATGNRDYAKDDPLEFKSHQWFGASVRSKQDKILACAPLYHWRTEMKQEREPVGTCFLQDGTKTVEYAPCRSQDIDADGQGFCQGGFSIDFTKADRVLLGGPGSFYWQGQLISDQVAEIVSKYDPNVYSIKYNNQLATRTAQAIFDDSYLGYSVAVGDFNGDGIDDFVSGVPRAARTLGMVYIYDGKNMSSLYNFTGEQMAAYFGFSVAATDINGDDYADVFIGAPLFMDRGSDGKLQEVGQVSVSLQRASGDFQTTKLNGFEVFARFGSAIAPLGDLDQDGFNDIAIAAPYGGEDKKGIVYIFNGRSTGLNAVPSQILEGQWAARSMPPSFGYSMKGATDIDKNGYPDLIVGAFGVDRAILYRARPVITVNAGLEVYPS
chain 2: GPNICTTRGVSSCQQCLAVSPMCAWCSDEALPLGSPRCDLKENLLKDNCAPESIEFPVSEARVLEDRPLSDKGSGDSSQVTQVSPQRIALRLRPDDSKNFSIQVRQVEDYPVDIYYLMDLSYSMKDDLWSIQNLGTKLATQMRKLTSNLRIGFGAFVDKPVSPYMYISPPEALENPCYDMKTTCLPMFGYKHVLTLTDQVTRFNEEVKKQSVSRNRDAPEGGFDAIMQATVCDEKIGWRNDASHLLVFTTDAKTHIALDGRLAGIVQPNDGQCHVGSDNHYSASTTMDYPSLGLMTEKLSQKNINLIFAVTENVVNLYQNYSELIPGTTVGVLSMDSSNVLQLIVDAYGKIRSKVELEVRDLPEELSLSFNATCLNNEVIPGLKSCMGLKIGDTVSFSIEAKVRGCPQEKEKSFTIKPVGFKDSLIVQVTFDCDCA
